Results reported in US20260167699A1 (Chugai, published 2026).

T1: FcγRIIa(R) extracellular domain, His-tagged (human, UniProt P12318 34-217)
T1 construct: extracellular domain; also called 2aR
T1 sequence: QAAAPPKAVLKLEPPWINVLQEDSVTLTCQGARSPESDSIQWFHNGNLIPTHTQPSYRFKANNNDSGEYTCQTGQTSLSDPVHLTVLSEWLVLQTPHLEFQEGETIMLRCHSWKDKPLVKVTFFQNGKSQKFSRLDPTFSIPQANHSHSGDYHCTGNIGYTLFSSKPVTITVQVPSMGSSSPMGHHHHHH

T2: FcγRIIb extracellular domain, His-tagged (human, UniProt P31994 43-217)
T2 construct: extracellular domain; also called 2b
T2 sequence: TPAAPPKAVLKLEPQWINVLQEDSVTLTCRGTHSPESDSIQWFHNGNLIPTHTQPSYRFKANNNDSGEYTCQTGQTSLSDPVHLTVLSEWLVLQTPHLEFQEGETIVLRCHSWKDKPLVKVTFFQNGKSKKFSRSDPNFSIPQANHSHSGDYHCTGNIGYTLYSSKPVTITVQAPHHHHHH

T3: FcγRIIa(H) extracellular domain, His-tagged (human, UniProt P12318 34-217)
T3 construct: extracellular domain; also called 2aH
T3 sequence: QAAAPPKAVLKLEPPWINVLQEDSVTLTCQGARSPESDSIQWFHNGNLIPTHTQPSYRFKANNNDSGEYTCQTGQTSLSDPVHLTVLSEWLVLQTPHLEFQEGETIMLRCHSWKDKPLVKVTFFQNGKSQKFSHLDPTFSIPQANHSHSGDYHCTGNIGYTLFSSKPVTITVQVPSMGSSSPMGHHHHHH


Tests used:
Assay in all cases: SPR, vs GpH7-A5/GpH7-B3/GpL16-k0 =100
[1] = target: T1, FcγRIIa(R) extracellular domain, …
[2] = target: T4, FcγRIa extracellular domain, His-tagged (human, UniProt P12314 16-292)
T4 construct: extracellular domain; also called 1a

[3] = target: T2, FcγRIIb extracellular domain, His-tagged
[4] = target: T5, FcγRIIIa extracellular domain, His-tagged (human, UniProt P08637 17-208)
T5 construct: extracellular domain; also called 3a

[5] = target: T3, FcγRIIa(H) extracellular domain, …

T5 sequence (P08637 other isoform, or with tags, fused parts or gaps): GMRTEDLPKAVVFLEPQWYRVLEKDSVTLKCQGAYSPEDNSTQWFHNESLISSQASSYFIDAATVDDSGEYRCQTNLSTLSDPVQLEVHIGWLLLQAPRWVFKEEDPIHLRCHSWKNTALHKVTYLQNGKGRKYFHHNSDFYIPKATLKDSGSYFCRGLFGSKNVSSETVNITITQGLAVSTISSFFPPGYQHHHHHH
T4 sequence (P12314 other isoform, or with tags, fused parts or gaps): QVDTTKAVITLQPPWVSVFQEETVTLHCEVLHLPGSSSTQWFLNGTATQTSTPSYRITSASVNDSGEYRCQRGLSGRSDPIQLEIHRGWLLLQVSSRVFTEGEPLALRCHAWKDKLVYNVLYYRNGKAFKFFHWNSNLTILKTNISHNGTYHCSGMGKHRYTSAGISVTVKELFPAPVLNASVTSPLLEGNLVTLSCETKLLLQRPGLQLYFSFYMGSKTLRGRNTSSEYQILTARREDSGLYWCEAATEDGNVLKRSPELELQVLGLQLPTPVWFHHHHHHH

Binder | He/Con 2aR [1] | He/Con 1a [2] | He/Con 2b [3] | He/Con 3a [4] | He/Con 2aH [5]
GpH7-A5/GpH7-B3 variant P271_07I/GpL16-k0 (antibody, human IgG1, kappa) heavy 1: not shown heavy 2: not shown light: DIVMTQSPLSLPVTPGEPASISCQASESLVHSNRNTYLHWYLQKPGQSPQLLIYKVSNRFSGVPDRFSGSGSGTDFTLKISRVEAEDVGVYYCSQNTHVPPTFGQGTKVEIERTVAAPSVFIFPPSDEQLKSGTASVVCLLNNFYPREAKVQWKVDNALQSGNSQESVTEQDSKDSTYSLSSTLTLSKADYEKHKVYACEVTHQGLSSPVTKSFNRGEC | 88 % of control | 101 % of control | 86.1 % of control | 80.2 % of control | 94.1 % of control
GpH7-A5/GpH7-B3 variant P271_09D/GpL16-k0 (antibody, human IgG1, kappa) heavy 1: not shown heavy 2: not shown light: DIVMTQSPLSLPVTPGEPASISCQASESLVHSNRNTYLHWYLQKPGQSPQLLIYKVSNRFSGVPDRFSGSGSGTDFTLKISRVEAEDVGVYYCSQNTHVPPTFGQGTKVEIERTVAAPSVFIFPPSDEQLKSGTASVVCLLNNFYPREAKVQWKVDNALQSGNSQESVTEQDSKDSTYSLSSTLTLSKADYEKHKVYACEVTHQGLSSPVTKSFNRGEC | 109 % of control | 100 % of control | 135 % of control | 97.7 % of control | 80.4 % of control
GpH7-A5/GpH7-B3 variant P271_14T/GpL16-k0 (antibody, human IgG1, kappa) heavy 1: not shown heavy 2: not shown light: DIVMTQSPLSLPVTPGEPASISCQASESLVHSNRNTYLHWYLQKPGQSPQLLIYKVSNRFSGVPDRFSGSGSGTDFTLKISRVEAEDVGVYYCSQNTHVPPTFGQGTKVEIERTVAAPSVFIFPPSDEQLKSGTASVVCLLNNFYPREAKVQWKVDNALQSGNSQESVTEQDSKDSTYSLSSTLTLSKADYEKHKVYACEVTHQGLSSPVTKSFNRGEC | 94.7 % of control | 101 % of control | 107 % of control | 59.2 % of control | 69.8 % of control
GpH7-A5/GpH7-B3 variant P271_16H/GpL16-k0 (antibody, human IgG1, kappa) heavy 1: not shown heavy 2: not shown light: DIVMTQSPLSLPVTPGEPASISCQASESLVHSNRNTYLHWYLQKPGQSPQLLIYKVSNRFSGVPDRFSGSGSGTDFTLKISRVEAEDVGVYYCSQNTHVPPTFGQGTKVEIERTVAAPSVFIFPPSDEQLKSGTASVVCLLNNFYPREAKVQWKVDNALQSGNSQESVTEQDSKDSTYSLSSTLTLSKADYEKHKVYACEVTHQGLSSPVTKSFNRGEC | 79 % of control | 100 % of control | 76.2 % of control | 70.3 % of control | 76.4 % of control
GpH7-A5/GpH7-B3 variant Q295_02A/GpL16-k0 (antibody, human IgG1, kappa) heavy 1: not shown heavy 2: not shown light: DIVMTQSPLSLPVTPGEPASISCQASESLVHSNRNTYLHWYLQKPGQSPQLLIYKVSNRFSGVPDRFSGSGSGTDFTLKISRVEAEDVGVYYCSQNTHVPPTFGQGTKVEIERTVAAPSVFIFPPSDEQLKSGTASVVCLLNNFYPREAKVQWKVDNALQSGNSQESVTEQDSKDSTYSLSSTLTLSKADYEKHKVYACEVTHQGLSSPVTKSFNRGEC | 91.5 % of control | 103 % of control | 89.4 % of control | 111 % of control | 101 % of control
GpH7-A5/GpH7-B3 variant P271_15Y/GpL16-k0 (antibody, human IgG1, kappa) heavy 1: not shown heavy 2: not shown light: DIVMTQSPLSLPVTPGEPASISCQASESLVHSNRNTYLHWYLQKPGQSPQLLIYKVSNRFSGVPDRFSGSGSGTDFTLKISRVEAEDVGVYYCSQNTHVPPTFGQGTKVEIERTVAAPSVFIFPPSDEQLKSGTASVVCLLNNFYPREAKVQWKVDNALQSGNSQESVTEQDSKDSTYSLSSTLTLSKADYEKHKVYACEVTHQGLSSPVTKSFNRGEC | 70 % of control | 101 % of control | 58.6 % of control | 62.7 % of control | 74 % of control
GpH7-A5/GpH7-B3 variant P271_11K/GpL16-k0 (antibody, human IgG1, kappa) heavy 1: not shown heavy 2: not shown light: DIVMTQSPLSLPVTPGEPASISCQASESLVHSNRNTYLHWYLQKPGQSPQLLIYKVSNRFSGVPDRFSGSGSGTDFTLKISRVEAEDVGVYYCSQNTHVPPTFGQGTKVEIERTVAAPSVFIFPPSDEQLKSGTASVVCLLNNFYPREAKVQWKVDNALQSGNSQESVTEQDSKDSTYSLSSTLTLSKADYEKHKVYACEVTHQGLSSPVTKSFNRGEC | 97.3 % of control | 101 % of control | 101 % of control | 92.5 % of control | 100 % of control
GpH7-A5/GpH7-B3 variant P271_12R/GpL16-k0 (antibody, human IgG1, kappa) heavy 1: not shown heavy 2: not shown light: DIVMTQSPLSLPVTPGEPASISCQASESLVHSNRNTYLHWYLQKPGQSPQLLIYKVSNRFSGVPDRFSGSGSGTDFTLKISRVEAEDVGVYYCSQNTHVPPTFGQGTKVEIERTVAAPSVFIFPPSDEQLKSGTASVVCLLNNFYPREAKVQWKVDNALQSGNSQESVTEQDSKDSTYSLSSTLTLSKADYEKHKVYACEVTHQGLSSPVTKSFNRGEC | 95.8 % of control | 101 % of control | 96.9 % of control | 87.6 % of control | 100 % of control
GpH7-A5/GpH7-B3 variant P271_13S/GpL16-k0 (antibody, human IgG1, kappa) heavy 1: not shown heavy 2: not shown light: DIVMTQSPLSLPVTPGEPASISCQASESLVHSNRNTYLHWYLQKPGQSPQLLIYKVSNRFSGVPDRFSGSGSGTDFTLKISRVEAEDVGVYYCSQNTHVPPTFGQGTKVEIERTVAAPSVFIFPPSDEQLKSGTASVVCLLNNFYPREAKVQWKVDNALQSGNSQESVTEQDSKDSTYSLSSTLTLSKADYEKHKVYACEVTHQGLSSPVTKSFNRGEC | 93.5 % of control | 101 % of control | 98.2 % of control | 79.8 % of control | 83.3 % of control
GpH7-A5/GpH7-B3 variant P271_19Q/GpL16-k0 (antibody, human IgG1, kappa) heavy 1: not shown heavy 2: not shown light: DIVMTQSPLSLPVTPGEPASISCQASESLVHSNRNTYLHWYLQKPGQSPQLLIYKVSNRFSGVPDRFSGSGSGTDFTLKISRVEAEDVGVYYCSQNTHVPPTFGQGTKVEIERTVAAPSVFIFPPSDEQLKSGTASVVCLLNNFYPREAKVQWKVDNALQSGNSQESVTEQDSKDSTYSLSSTLTLSKADYEKHKVYACEVTHQGLSSPVTKSFNRGEC | 95.1 % of control | 102 % of control | 99.3 % of control | 84.6 % of control | 90.7 % of control
GpH7-A5/GpH7-B3 variant P271_20W/GpL16-k0 (antibody, human IgG1, kappa) heavy 1: not shown heavy 2: not shown light: DIVMTQSPLSLPVTPGEPASISCQASESLVHSNRNTYLHWYLQKPGQSPQLLIYKVSNRFSGVPDRFSGSGSGTDFTLKISRVEAEDVGVYYCSQNTHVPPTFGQGTKVEIERTVAAPSVFIFPPSDEQLKSGTASVVCLLNNFYPREAKVQWKVDNALQSGNSQESVTEQDSKDSTYSLSSTLTLSKADYEKHKVYACEVTHQGLSSPVTKSFNRGEC | 76.6 % of control | 101 % of control | 65.1 % of control | 77.8 % of control | 88.7 % of control
GpH7-A5/GpH7-B3 variant P271_08L/GpL16-k0 (antibody, human IgG1, kappa) heavy 1: not shown heavy 2: not shown light: DIVMTQSPLSLPVTPGEPASISCQASESLVHSNRNTYLHWYLQKPGQSPQLLIYKVSNRFSGVPDRFSGSGSGTDFTLKISRVEAEDVGVYYCSQNTHVPPTFGQGTKVEIERTVAAPSVFIFPPSDEQLKSGTASVVCLLNNFYPREAKVQWKVDNALQSGNSQESVTEQDSKDSTYSLSSTLTLSKADYEKHKVYACEVTHQGLSSPVTKSFNRGEC | 103 % of control | 101 % of control | 115 % of control | 74.5 % of control | 99.4 % of control
GpH7-A5/GpH7-B3 variant P271_18N/GpL16-k0 (antibody, human IgG1, kappa) heavy 1: not shown heavy 2: not shown light: DIVMTQSPLSLPVTPGEPASISCQASESLVHSNRNTYLHWYLQKPGQSPQLLIYKVSNRFSGVPDRFSGSGSGTDFTLKISRVEAEDVGVYYCSQNTHVPPTFGQGTKVEIERTVAAPSVFIFPPSDEQLKSGTASVVCLLNNFYPREAKVQWKVDNALQSGNSQESVTEQDSKDSTYSLSSTLTLSKADYEKHKVYACEVTHQGLSSPVTKSFNRGEC | 97.7 % of control | 102 % of control | 105 % of control | 94 % of control | 94.5 % of control
GpH7-A5/GpH7-B3 variant P271_10E/GpL16-k0 (antibody, human IgG1, kappa) heavy 1: not shown heavy 2: not shown light: DIVMTQSPLSLPVTPGEPASISCQASESLVHSNRNTYLHWYLQKPGQSPQLLIYKVSNRFSGVPDRFSGSGSGTDFTLKISRVEAEDVGVYYCSQNTHVPPTFGQGTKVEIERTVAAPSVFIFPPSDEQLKSGTASVVCLLNNFYPREAKVQWKVDNALQSGNSQESVTEQDSKDSTYSLSSTLTLSKADYEKHKVYACEVTHQGLSSPVTKSFNRGEC | 102 % of control | 101 % of control | 122 % of control | 98.2 % of control | 72.4 % of control
